Patent US20210340181A1

Experiments:
[1] = molecular target: T1, αvβ6 integrin (purified), P06756; assay: competitive ELISA vs BtLAP
T1 chain 1: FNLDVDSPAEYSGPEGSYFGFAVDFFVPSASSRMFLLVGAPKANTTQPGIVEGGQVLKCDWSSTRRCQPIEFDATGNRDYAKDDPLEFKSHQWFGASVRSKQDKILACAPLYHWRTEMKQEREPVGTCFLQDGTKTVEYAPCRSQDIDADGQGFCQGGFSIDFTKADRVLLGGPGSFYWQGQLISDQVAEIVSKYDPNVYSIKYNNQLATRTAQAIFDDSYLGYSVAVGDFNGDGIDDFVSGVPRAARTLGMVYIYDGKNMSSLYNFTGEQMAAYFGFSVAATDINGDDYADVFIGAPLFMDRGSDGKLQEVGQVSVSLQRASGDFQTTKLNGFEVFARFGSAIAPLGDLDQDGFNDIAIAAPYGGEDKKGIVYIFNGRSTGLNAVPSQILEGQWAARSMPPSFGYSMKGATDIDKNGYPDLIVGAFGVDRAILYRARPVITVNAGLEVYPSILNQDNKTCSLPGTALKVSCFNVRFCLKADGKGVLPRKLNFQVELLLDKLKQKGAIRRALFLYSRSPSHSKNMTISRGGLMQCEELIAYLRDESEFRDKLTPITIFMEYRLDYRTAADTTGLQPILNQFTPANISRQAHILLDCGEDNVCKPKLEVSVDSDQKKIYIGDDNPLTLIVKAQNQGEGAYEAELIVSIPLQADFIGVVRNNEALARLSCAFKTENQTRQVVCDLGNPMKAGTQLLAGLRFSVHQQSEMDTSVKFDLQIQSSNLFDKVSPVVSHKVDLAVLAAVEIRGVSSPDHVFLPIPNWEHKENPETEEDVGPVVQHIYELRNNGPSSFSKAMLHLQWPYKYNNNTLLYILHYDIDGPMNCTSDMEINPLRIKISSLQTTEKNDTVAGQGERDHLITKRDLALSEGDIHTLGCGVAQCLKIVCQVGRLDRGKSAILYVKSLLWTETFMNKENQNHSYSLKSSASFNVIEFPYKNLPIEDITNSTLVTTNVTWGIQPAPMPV
T1 chain 2: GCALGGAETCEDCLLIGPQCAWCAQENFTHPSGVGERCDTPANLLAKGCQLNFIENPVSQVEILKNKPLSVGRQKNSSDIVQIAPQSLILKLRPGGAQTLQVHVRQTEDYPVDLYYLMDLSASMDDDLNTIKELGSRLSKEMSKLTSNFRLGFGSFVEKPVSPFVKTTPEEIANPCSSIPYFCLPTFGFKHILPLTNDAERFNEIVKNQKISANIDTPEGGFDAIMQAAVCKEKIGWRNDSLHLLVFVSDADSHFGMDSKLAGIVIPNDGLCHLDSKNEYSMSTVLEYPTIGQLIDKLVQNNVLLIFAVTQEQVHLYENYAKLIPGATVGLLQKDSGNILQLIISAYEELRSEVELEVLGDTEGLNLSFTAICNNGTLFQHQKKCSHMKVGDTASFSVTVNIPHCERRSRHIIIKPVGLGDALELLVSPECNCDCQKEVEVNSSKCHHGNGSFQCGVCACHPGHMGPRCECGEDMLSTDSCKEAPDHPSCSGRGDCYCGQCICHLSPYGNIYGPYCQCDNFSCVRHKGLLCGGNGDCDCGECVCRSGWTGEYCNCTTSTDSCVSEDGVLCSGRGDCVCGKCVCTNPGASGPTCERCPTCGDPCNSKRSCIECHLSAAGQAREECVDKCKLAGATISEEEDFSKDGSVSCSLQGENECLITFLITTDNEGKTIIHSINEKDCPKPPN

[2] = molecular target: T2, αvβ6 integrin on DX3puroβ6 (αvβ6+) cells (human), P06756; assay: 18F peptide cell binding, αvβ6+ over αvβ6- cells
T2 chain 1: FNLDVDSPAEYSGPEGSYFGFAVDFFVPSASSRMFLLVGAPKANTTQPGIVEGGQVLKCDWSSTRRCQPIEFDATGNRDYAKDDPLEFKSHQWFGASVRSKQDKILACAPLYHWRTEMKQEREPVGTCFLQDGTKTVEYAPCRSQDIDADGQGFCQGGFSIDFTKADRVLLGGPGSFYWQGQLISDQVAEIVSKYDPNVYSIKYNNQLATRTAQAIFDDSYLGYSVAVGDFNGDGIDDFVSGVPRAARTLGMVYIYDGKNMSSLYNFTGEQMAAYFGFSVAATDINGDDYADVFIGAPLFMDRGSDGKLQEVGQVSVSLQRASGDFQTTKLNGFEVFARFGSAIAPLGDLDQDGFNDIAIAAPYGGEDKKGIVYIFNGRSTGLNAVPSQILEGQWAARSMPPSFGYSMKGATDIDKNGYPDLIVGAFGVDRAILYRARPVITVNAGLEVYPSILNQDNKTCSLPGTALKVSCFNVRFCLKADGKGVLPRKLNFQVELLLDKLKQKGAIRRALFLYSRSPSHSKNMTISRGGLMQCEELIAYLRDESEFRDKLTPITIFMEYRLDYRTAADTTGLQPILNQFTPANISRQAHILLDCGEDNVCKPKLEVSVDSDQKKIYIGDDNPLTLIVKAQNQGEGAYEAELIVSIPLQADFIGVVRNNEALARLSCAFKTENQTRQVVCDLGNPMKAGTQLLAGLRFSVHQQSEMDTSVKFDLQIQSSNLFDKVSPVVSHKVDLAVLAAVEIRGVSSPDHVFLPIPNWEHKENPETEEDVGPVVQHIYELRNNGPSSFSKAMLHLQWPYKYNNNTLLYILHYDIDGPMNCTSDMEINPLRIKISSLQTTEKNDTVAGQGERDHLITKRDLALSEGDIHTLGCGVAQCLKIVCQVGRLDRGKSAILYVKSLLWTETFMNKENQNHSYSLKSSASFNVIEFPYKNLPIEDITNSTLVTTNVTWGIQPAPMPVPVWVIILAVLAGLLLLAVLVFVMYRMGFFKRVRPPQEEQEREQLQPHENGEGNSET
T2 chain 2: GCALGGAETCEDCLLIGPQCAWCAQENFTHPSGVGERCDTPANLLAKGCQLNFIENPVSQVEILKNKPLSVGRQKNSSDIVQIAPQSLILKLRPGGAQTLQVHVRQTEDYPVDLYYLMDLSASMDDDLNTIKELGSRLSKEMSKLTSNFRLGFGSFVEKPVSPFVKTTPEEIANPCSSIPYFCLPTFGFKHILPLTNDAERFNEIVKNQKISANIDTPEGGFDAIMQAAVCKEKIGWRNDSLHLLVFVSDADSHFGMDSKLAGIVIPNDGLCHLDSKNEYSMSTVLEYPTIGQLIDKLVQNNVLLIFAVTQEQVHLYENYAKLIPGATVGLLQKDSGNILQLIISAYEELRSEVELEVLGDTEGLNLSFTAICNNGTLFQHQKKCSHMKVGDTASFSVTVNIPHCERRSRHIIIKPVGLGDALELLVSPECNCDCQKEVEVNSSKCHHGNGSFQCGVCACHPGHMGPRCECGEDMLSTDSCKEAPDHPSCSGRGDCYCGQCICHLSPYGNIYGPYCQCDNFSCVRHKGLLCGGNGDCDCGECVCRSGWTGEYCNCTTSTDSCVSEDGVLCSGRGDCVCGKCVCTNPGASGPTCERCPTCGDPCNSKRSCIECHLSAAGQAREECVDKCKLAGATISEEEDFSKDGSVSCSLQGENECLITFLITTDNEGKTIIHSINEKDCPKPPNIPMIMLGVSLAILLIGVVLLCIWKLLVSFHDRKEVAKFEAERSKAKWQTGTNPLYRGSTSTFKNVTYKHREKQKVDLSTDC

[3] = molecular target: T3, αvβ8 integrin (purified), P06756; assay: competitive ELISA vs BtLAP
T3 chain 1: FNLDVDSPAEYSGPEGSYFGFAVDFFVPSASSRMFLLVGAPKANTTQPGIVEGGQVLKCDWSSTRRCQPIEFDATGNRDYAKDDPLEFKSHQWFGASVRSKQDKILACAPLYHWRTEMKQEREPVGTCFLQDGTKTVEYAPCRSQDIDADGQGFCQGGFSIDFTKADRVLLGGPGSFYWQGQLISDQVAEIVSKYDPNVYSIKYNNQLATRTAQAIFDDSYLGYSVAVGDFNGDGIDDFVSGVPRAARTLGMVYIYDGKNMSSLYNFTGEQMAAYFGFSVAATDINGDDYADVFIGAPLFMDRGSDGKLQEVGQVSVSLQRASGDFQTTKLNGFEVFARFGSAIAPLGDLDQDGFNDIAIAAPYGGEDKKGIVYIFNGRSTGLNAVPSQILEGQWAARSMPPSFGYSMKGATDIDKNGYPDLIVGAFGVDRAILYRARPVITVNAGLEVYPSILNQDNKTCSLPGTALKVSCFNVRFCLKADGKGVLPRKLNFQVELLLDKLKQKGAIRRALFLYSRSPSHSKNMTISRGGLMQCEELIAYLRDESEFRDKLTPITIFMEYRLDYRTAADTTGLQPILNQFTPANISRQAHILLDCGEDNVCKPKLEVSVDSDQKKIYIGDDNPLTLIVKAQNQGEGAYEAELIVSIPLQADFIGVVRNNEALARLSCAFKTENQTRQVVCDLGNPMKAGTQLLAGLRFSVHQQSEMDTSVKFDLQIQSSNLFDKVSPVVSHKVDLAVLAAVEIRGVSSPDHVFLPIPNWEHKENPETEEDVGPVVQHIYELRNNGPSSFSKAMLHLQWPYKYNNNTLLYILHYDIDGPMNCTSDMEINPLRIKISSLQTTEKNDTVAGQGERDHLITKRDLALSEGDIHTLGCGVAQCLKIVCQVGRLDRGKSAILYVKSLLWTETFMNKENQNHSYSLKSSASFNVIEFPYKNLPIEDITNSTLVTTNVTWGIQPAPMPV
T3 chain 2: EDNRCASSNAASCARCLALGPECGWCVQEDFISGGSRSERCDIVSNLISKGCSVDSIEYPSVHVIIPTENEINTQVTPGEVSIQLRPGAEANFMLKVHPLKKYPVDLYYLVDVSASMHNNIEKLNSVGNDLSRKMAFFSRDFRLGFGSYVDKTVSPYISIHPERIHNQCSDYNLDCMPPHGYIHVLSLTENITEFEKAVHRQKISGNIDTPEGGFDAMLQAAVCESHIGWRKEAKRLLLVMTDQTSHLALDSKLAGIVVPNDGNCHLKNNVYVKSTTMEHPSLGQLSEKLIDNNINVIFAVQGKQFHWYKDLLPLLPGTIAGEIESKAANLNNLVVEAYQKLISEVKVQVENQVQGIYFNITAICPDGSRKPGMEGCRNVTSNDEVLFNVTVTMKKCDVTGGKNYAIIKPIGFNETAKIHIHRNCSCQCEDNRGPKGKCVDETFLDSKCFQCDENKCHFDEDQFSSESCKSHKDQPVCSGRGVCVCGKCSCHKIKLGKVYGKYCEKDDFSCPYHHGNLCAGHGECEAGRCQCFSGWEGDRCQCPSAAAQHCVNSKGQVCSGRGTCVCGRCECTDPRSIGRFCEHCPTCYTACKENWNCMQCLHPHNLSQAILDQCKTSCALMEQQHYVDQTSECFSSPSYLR

[4] = molecular target: T2, αvβ6 integrin on DX3puroβ6 (αvβ6+) …; assay: 18F peptide binding to DX3puroβ6 (αvβ6+) cells, 1 h, gamma counting

RTDLDSLRT (modifications not checked) [RTD-9mer, FB-…]
IC50 [1]: 22 nM
DX3puroβ6 (αvβ6+)/DX3puro (αvβ6-) selectivity ratio [2]: 1.7

RGDLADLRK (modifications not checked) [P3, …(FB)]
IC50 [1]: 420 nM
IC50 [3]: 200 nM
DX3puroβ6 (αvβ6+)/DX3puro (αvβ6-) selectivity ratio [2]: 1.4
% binding to cells [4]: 10.8%

GRGDLGRL (modifications not checked) [SFLAP3-8mer, FB-GRGDLGRL]
IC50 [1]: 89 nM
DX3puroβ6 (αvβ6+)/DX3puro (αvβ6-) selectivity ratio [2]: 1.4

VGDLTYLKK (modifications not checked) [P1, …(FB)]
IC50 [1]: 450 nM
IC50 [3]: 5300 nM
DX3puroβ6 (αvβ6+)/DX3puro (αvβ6-) selectivity ratio [2]: 1.1
% binding to cells [4]: 12.8%

RGDLQVLA (modifications not checked) [A20-8mer, FB-RGDLQVLA]
DX3puroβ6 (αvβ6+)/DX3puro (αvβ6-) selectivity ratio [2]: 7.8

RGDLQVLAQKVART (modifications not checked) [A20-14mer, FB-…]
DX3puroβ6 (αvβ6+)/DX3puro (αvβ6-) selectivity ratio [2]: 8.4

RSDLTPLF (modifications not checked) [KL3, FB-RSDLTPLF]
IC50 [1]: 1700 nM
DX3puroβ6 (αvβ6+)/DX3puro (αvβ6-) selectivity ratio [2]: 0.9
% binding to cells [4]: 0.7%
